# Measured values as given in the PETadex activity labels (doi:10.3389/fbioe.2022.865787).
# Experiments:
# p-NP-C10 = conditions: pH 8; 35 °C
# p-NP-C12 = conditions: pH 8; 35 °C
# p-NP-C14 = conditions: pH 8; 35 °C
# p-NP-C16 = conditions: pH 8; 35 °C
# p-NP-C18 = conditions: pH 8; 35 °C
# p-NP-C2 = conditions: pH 8; 35 °C
# p-NP-C4 = conditions: pH 8; 35 °C
# p-NP-C6 = conditions: pH 8; 35 °C
# p-NP-C8 = conditions: pH 8; 35 °C
# pNPB = test: Proxy for plastic degradation [Absorbance @ 405nm]
# PET [1] = test: Proxy for plastic degradation [Released monomer concentration (HPLC/LC-MS) (TPA)]; conditions: pH 8.5
# PET [2] = test: Proxy for plastic degradation [Released monomer concentration (HPLC/LC-MS) (BHET)]; conditions: pH 8.5
# PET [3] = test: Proxy for plastic degradation [Released monomer concentration (HPLC/LC-MS) (MHET)]; conditions: pH 8.5
# PET [4] = test: Proxy for plastic degradation [Released monomer concentration (HPLC/LC-MS) (Total aromatic products)]; conditions: pH 8.5
protein,measurement,setting,value
unnamed (protein) MLTHSISPEETDGGRRTPLSRMSRLAARVGVTLSLAAGLTAGVTAPAHASNPYERGPAPTESSVTAVRGYFDTDTDTVSSLVSGFGGGTIYYPTDTSEGTFGGVVIAPGYTASQSSMAWMGHRIASQGFVVFTIDTITRYDQPDSRGRQIEAALDYLVEDSDVADRVDGNRLAVMGHSMGGGGTLAAAENRPELRAAIPLTPWHLQKNWSDVEVPTMIIGAENDTVASVRTHSIPFYESLDEDLERAYLELDGASHFAPNISNTVIAKYSISWLKRFVDEDERYEQFLCPPPDTGLFSDFSDYRDSCPHTT,Km,p-NP-C10,4.93 mM
same,kcat,p-NP-C10,69.9 s⁻¹
same,kcat/Km,p-NP-C10,14200 s⁻¹ M⁻¹
same,Km,p-NP-C12,1.68 mM
same,kcat,p-NP-C12,30.5 s⁻¹
same,kcat/Km,p-NP-C12,18200 s⁻¹ M⁻¹
same,Km,p-NP-C14,190 µM
same,kcat,p-NP-C14,9.87 s⁻¹
same,kcat/Km,p-NP-C14,51900 s⁻¹ M⁻¹
same,Km,p-NP-C16,150 µM
same,kcat,p-NP-C16,4.79 s⁻¹
same,kcat/Km,p-NP-C16,31900 s⁻¹ M⁻¹
same,Km,p-NP-C18,450 µM
same,kcat,p-NP-C18,14.3 s⁻¹
same,kcat/Km,p-NP-C18,31800 s⁻¹ M⁻¹
same,Km,p-NP-C2,550 µM
same,kcat,p-NP-C2,4.47 s⁻¹
same,kcat/Km,p-NP-C2,8130 s⁻¹ M⁻¹
same,Km,p-NP-C4,1.33 mM
same,kcat,p-NP-C4,14.1 s⁻¹
same,kcat/Km,p-NP-C4,10600 s⁻¹ M⁻¹
same,Km,p-NP-C6,4.61 mM
same,kcat,p-NP-C6,41.7 s⁻¹
same,kcat/Km,p-NP-C6,9050 s⁻¹ M⁻¹
same,Km,p-NP-C8,2.55 mM
same,kcat,p-NP-C8,79.4 s⁻¹
same,kcat/Km,p-NP-C8,31100 s⁻¹ M⁻¹
same,Proxy for plastic degradation,pNPB; pH 8,100%
same,Proxy for plastic degradation,"pNPB; pH 8, 0 h",100%
same,Proxy for plastic degradation,pNPB; pH 8.5,97.5%
same,Proxy for plastic degradation,PET [1]; 12 h,5 µM
same,Proxy for plastic degradation,PET [1]; 24 h,12.5 µM
same,Proxy for plastic degradation,PET [1]; 36 h,25 µM
same,Proxy for plastic degradation,PET [1]; 48 h,50 µM
same,Proxy for plastic degradation,PET [1]; 60 h,70 µM
same,Proxy for plastic degradation,PET [1]; 72 h,75 µM
same,Proxy for plastic degradation,PET [1]; 84 h,120 µM
same,Proxy for plastic degradation,PET [1]; 96 h,150 µM
same,Proxy for plastic degradation,PET [1]; 108 h,180 µM
same,Proxy for plastic degradation,PET [2],1 µM
same,Proxy for plastic degradation,PET [3]; 12 h,5 µM
same,Proxy for plastic degradation,PET [3]; 24 h,10 µM
same,Proxy for plastic degradation,PET [3]; 36 h,20 µM
same,Proxy for plastic degradation,PET [3]; 48 h,70 µM
same,Proxy for plastic degradation,PET [3]; 60 h,105 µM
same,Proxy for plastic degradation,PET [3]; 72 h,140 µM
same,Proxy for plastic degradation,PET [3]; 84 h,135 µM
same,Proxy for plastic degradation,PET [3]; 96 h,155 µM
same,Proxy for plastic degradation,PET [3]; 108 h,150 µM
same,Proxy for plastic degradation,PET [4]; 30 °C,45 µM
same,Proxy for plastic degradation,PET [4]; 35 °C,130 µM
same,Proxy for plastic degradation,PET [4]; 40 °C,230 µM
same,Proxy for plastic degradation,PET [4]; 45 °C,330 µM
same,Proxy for plastic degradation,PET [4]; 50 °C,100 µM
unnamed (protein) MLTHSISPEETDGGRRTPLSRMSRLAARVGVTLSLAAGLTAGVTAPAHASNPYERGPAPTESSVTAVRGYFDTDTDTVSSLVSGFGGGTIYYPTDTSEGTFGGVVIAPGYTASQSSMAWMGHRIASQGFVVFTIDTITRYDQPDSRGRQIEAALDYLVEDSDVADRVDGNRLAVMGHSMGGGGTLAAAENRPELRAAIPLTPWHLQKNWSDVEVPTMIIGAENDTVASVRTHSIPFYESLDEDLERAYLELDGASHFAPNISNTVIAKYSISWLKRFVDEDERYEQFLCPPPDTGLFSDFADYRDSCPHTT,Proxy for plastic degradation,"pNPB; pH 8, 0 h",100%
same,Proxy for plastic degradation,"pNPB; pH 8, 5 °C",42.5%
same,Proxy for plastic degradation,"pNPB; pH 8, 10 °C",45%
same,Proxy for plastic degradation,"pNPB; pH 8, 15 °C",47.5%
same,Proxy for plastic degradation,"pNPB; pH 8, 20 °C",55%
same,Proxy for plastic degradation,"pNPB; pH 8, 25 °C",75%
same,Proxy for plastic degradation,"pNPB; pH 8, 30 °C",100%
same,Proxy for plastic degradation,"pNPB; pH 8, 35 °C",92.5%
same,Proxy for plastic degradation,"pNPB; pH 8, 40 °C",87.5%
same,Proxy for plastic degradation,"pNPB; pH 8, 45 °C",77.5%
same,Proxy for plastic degradation,"pNPB; pH 8, 50 °C",62.5%
same,Proxy for plastic degradation,"pNPB; pH 8, 55 °C",35%
same,Proxy for plastic degradation,"pNPB; pH 8, 60 °C",20%
same,Proxy for plastic degradation,"pNPB; pH 8, 65 °C",17.5%
same,Proxy for plastic degradation,"pNPB; pH 8, 70 °C",15%
same,Proxy for plastic degradation,"pNPB; pH 8, 20 h",87.5%
same,Proxy for plastic degradation,"pNPB; pH 8, 40 h",77.5%
same,Proxy for plastic degradation,"pNPB; pH 8, 60 h",65%
same,Proxy for plastic degradation,"pNPB; pH 8, 80 h",62.5%
same,Proxy for plastic degradation,"pNPB; pH 8, 100 h",60%
same,Proxy for plastic degradation,"pNPB; pH 8, 120 h",57.5%
unnamed (protein) MLTHSISPEETDGGRRTPLSRMSRLAARVGVTLSLAAGLTAGVTAPAHASNPYERGPAPTESSVTAVRGYFDTDTDTVSSLVSGFGGGTIYYPTDTSEGTFGGVVIAPGYTASQSSMAWMGHRIASQGFVVFTIDTITRYDQPDSRGRQIEAALDYLVEDSDVADRVDGNRLAVMGHSMGGGGTLAAAENRPELRAAIPLTPWHLQKNWSDVEVPTMIIGAENDTVASVRTHSIPFYESLDEDLERAYLELAGASHFAPNISNTVIAKYSISWLKRFVDEDERYEQFLCPPPDTGLFSDFSDYRDSCPHTT,Proxy for plastic degradation,"pNPB; pH 8, 0 h",100%
same,Proxy for plastic degradation,"pNPB; pH 8, 5 °C",15%
same,Proxy for plastic degradation,"pNPB; pH 8, 10 °C",17.5%
same,Proxy for plastic degradation,"pNPB; pH 8, 15 °C",20%
same,Proxy for plastic degradation,"pNPB; pH 8, 20 °C",32.5%
same,Proxy for plastic degradation,"pNPB; pH 8, 25 °C",50%
same,Proxy for plastic degradation,"pNPB; pH 8, 30 °C",90%
same,Proxy for plastic degradation,"pNPB; pH 8, 35 °C",100%
same,Proxy for plastic degradation,"pNPB; pH 8, 40 °C",80%
same,Proxy for plastic degradation,"pNPB; pH 8, 45 °C",70%
same,Proxy for plastic degradation,"pNPB; pH 8, 50 °C",37.5%
same,Proxy for plastic degradation,"pNPB; pH 8, 55 °C",25%
same,Proxy for plastic degradation,"pNPB; pH 8, 60 °C",15%
same,Proxy for plastic degradation,"pNPB; pH 8, 65 °C",12.5%
same,Proxy for plastic degradation,"pNPB; pH 8, 70 °C",10%
same,Proxy for plastic degradation,"pNPB; pH 8, 20 h",75%
same,Proxy for plastic degradation,"pNPB; pH 8, 40 h",70%
same,Proxy for plastic degradation,"pNPB; pH 8, 60 h",55%
same,Proxy for plastic degradation,"pNPB; pH 8, 80 h",40%
same,Proxy for plastic degradation,"pNPB; pH 8, 100 h",35%
same,Proxy for plastic degradation,"pNPB; pH 8, 120 h",25%
unnamed (protein) MNFPRASRLMQAAVLGGLMAVSAAATAQTNPYARGPNPTAASLEASAGPFTVRSFTVSRPSGYGAGTVYYPTNAGGTVGAIAIVPGYTARQSSIKWWGPRLASHGFVVITIDTNSTLDQPSSRSSQQMAALRQVASLNGTSSSPIYGKVDTARMGVMGWSMGGGGSLISAANNPSLKAAAPQAPWDSSTNFSSVTVPTLIFACENDSIAPVNSSALPIYDSMSRNAKQFLEINGGSHSCANSGNSNQALIGKKGVAWMKRFMDNDTRYSTFACENPNSTRVSDFRTANCS,Proxy for plastic degradation,"PET [1]; 12 h, part of the chain shown",30 µM
same,Proxy for plastic degradation,"PET [1]; 24 h, part of the chain shown",37.5 µM
same,Proxy for plastic degradation,"PET [1]; 36 h, part of the chain shown",42.5 µM
same,Proxy for plastic degradation,"PET [1]; 48 h, part of the chain shown",47.5 µM
same,Proxy for plastic degradation,"PET [1]; 60 h, part of the chain shown",50 µM
same,Proxy for plastic degradation,"PET [1]; 72 h, part of the chain shown",60 µM
same,Proxy for plastic degradation,"PET [1]; 84 h, part of the chain shown",70 µM
same,Proxy for plastic degradation,"PET [1]; 96 h, part of the chain shown",80 µM
same,Proxy for plastic degradation,"PET [1]; 108 h, part of the chain shown",100 µM
same,Proxy for plastic degradation,"PET [3]; 12 h, part of the chain shown",140 µM
same,Proxy for plastic degradation,"PET [3]; 24 h, part of the chain shown",150 µM
same,Proxy for plastic degradation,"PET [3]; 36 h, part of the chain shown",160 µM
same,Proxy for plastic degradation,"PET [3]; 48 h, part of the chain shown",165 µM
same,Proxy for plastic degradation,"PET [3]; 60 h, part of the chain shown",155 µM
same,Proxy for plastic degradation,"PET [3]; 72 h, part of the chain shown",155 µM
same,Proxy for plastic degradation,"PET [3]; 84 h, part of the chain shown",158 µM
same,Proxy for plastic degradation,"PET [3]; 96 h, part of the chain shown",165 µM
same,Proxy for plastic degradation,"PET [3]; 108 h, part of the chain shown",158 µM
same,Proxy for plastic degradation,"PET [4]; 16 h, part of the chain shown",175 µM
same,Proxy for plastic degradation,"PET [4]; 27.75 h, part of the chain shown",200 µM
same,Proxy for plastic degradation,"PET [4]; 39.5 h, part of the chain shown",210 µM
same,Proxy for plastic degradation,"PET [4]; 51.25 h, part of the chain shown",220 µM
same,Proxy for plastic degradation,"PET [4]; 60 h, part of the chain shown",215 µM
same,Proxy for plastic degradation,"PET [4]; 74.75 h, part of the chain shown",225 µM
same,Proxy for plastic degradation,"PET [4]; 86.5 h, part of the chain shown",235 µM
same,Proxy for plastic degradation,"PET [4]; 98.25 h, part of the chain shown",240 µM
same,Proxy for plastic degradation,"PET [4]; 110 h, part of the chain shown",250 µM
